In series [1] the target is Arc NL (Rattus norvegicus) (UniProt Q63053). In words: ITC. Conditions: cited from earlier work.
Series [2] concerns the molecule itself. The experiment in a line: native gel or EMSA; different amounts of purified Arc^s113−119A in native sample buffer, native PAGE on 4-15% Tris-Glycine gels; bands detected by immunoblotting with ALFA-ArcNbs and anti-ALFA HRP-coupled sdAb. For orientation: A gel shift assay detects complexes by their altered migration in electrophoresis.

The Kd is the concentration at which binding is half-saturated. Regarding stargazin (from UniProt Q71RJ2), the dissociation constant Kd in series [1] was 34.9 nM.

B1: mutant rat Arc (Arc^s113−119A) (natural protein, UniProt Q63053 1-396, looked up)
chain: MELDHMTTGGLHAYPAPRGGPAAKPNVILQIGKCRAEMLEHVRRTHRHLLTEVSKQVERELKGLHRSVGKLENNLDGYVPTGDSQRWKKSIKACLCRCQETIANLERWVKREAAAAAAAFYRLERWADRLESMGGKYPVGSEPARHTVSVGVGGPEPYCQEADGYDYTVSPYAITPPPAAGELPEQESVGAQQYQSWVPGEDGQPSPGVDTQIFEDPREFLSHLEEYLRQVGGSEEYWLSQIQNHMNGPAKKWWEFKQGSVKNWVEFKKEFLQYSEGTLSREAIQRELDLPQKQGEPLDQFLWRKRDLYQTLYVDAEEEEIIQYVVGTLQPKFKRFLRHPLPKTLEQLIQRGMEVQDGLEQAAEPSVTPLPTEDETEALTPALTSESVASDRTQPE
notes: Activity-regulated cytoskeleton-associated protein (Arc, Arg3.1), rat; residues of the oligomerization motif 113-MHVWREV-119 substituted to alanine; also called purified mutant Arc^s113−119A protein; activity-regulated cytoskeleton-associated protein; source: purified recombinant
B1: in series [2], the binding result is on record as “binds”.

The values above are taken from paper PMC9463278, “Development and Validation of Arc Nanobodies: New Tools for Probing Arc Dynamics and Function” (Neurochemical Research, 2022).
